Data published in IntAct's records for PubMed 22135460.

B1: Late transcription coactivator (Enterobacteria phage T4), P13338 (parent)
chain: MTQFSLNDIRPVDETGLSEKELSIKKEKDEIAKLLDRQENGFIIEKMVEEFGMSYLEATTAFLEENSIPETQFAKFIPSGIIEKIQSEAIDENLLRPSVVRCEKTNTLDFLL

Variants of: B1
Settings: with rpob_ecoli rpoB

| Variant | effect of a mutation on the interaction |
| --- | --- |
| MTQFSLNDIRPVDETGLSEKELSIKKEKDEIAKLLDRQENGFIIEKMVEEFGMSYLEATTAFLEENSIPKTQFAKFIPSGIIEKIQSEAIDENLLRPSVVRCEKTNTLDFLL [E70K] | decreasing interaction strength |
